The text below walks through data of paper PMC7051184 (2020).

The experiment has as its target 6His-S-Importin β(1-876), full-length WT human importin β (human, UniProt Q14974 1-876). The experiment is described as follows: FRET; displacement of importin β-bound Rango.

Chain of 6His-S-Importin β(1-876), full-length WT human importin β (Q14974 whole entry): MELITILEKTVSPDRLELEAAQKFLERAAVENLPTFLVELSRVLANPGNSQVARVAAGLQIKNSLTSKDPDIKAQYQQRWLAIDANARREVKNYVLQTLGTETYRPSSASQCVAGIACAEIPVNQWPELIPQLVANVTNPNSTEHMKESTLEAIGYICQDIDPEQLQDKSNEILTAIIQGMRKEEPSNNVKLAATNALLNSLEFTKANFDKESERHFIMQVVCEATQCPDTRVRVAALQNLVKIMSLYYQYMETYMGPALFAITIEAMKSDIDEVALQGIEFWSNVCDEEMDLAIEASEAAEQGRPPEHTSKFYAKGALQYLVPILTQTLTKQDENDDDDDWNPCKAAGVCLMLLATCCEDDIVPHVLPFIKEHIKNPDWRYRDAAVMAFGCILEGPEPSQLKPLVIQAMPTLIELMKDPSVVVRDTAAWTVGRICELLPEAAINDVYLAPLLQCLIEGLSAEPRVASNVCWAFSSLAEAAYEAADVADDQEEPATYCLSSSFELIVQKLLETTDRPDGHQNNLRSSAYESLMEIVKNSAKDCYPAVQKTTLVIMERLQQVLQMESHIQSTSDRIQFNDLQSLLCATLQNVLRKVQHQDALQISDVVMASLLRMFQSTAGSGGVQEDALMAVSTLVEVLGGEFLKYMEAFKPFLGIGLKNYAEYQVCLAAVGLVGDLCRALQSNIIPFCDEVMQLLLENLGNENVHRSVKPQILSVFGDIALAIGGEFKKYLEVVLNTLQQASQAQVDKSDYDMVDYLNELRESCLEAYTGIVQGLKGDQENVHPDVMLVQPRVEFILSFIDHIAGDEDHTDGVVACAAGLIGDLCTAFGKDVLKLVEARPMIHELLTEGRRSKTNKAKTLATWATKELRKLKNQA

B1: PR10, synthetic poly-proline-arginine 10-mer dipeptide repeat protein with C-terminal lysine and cysteine (peptide)
peptide: PRPRPRPRPRPRPRPRPRPRKC
B1: binding was put at a Kd of 8.2 nM.
